Assay [1] has as its target T1, human tau fibrils (HT40, 2N4R) (Homo sapiens, UniProt P10636-8). The assay can be described thus: flow cytometry on fibril-coated beads. For orientation: Flow cytometry measures light scatter and fluorescence of single cells or particles in a stream.
Assay [2] concerns the target T1, human tau fibrils (HT40, 2N4R). The assay can be described thus: flow cytometry on fibril-coated beads, competition with monomer.
The target in a further assay is human 0N3R tau fibrils (Homo sapiens, UniProt P10636-2). Nature of the assay: far-Western, overlay or dot blot.
The target of assay [3] is human α-synuclein fibrils (Homo sapiens (Human)., UniProt P37840). The assay can be described thus: flow cytometry on fibril-coated beads, competition with monomer.

Changes are numbered by the printed parent chain.

The values that follow come from paper doi:10.1101/2023.07.04.547698 (bioRxiv, 2023).

B1: ATA1 (scFv, V domains shown)
VH: QVQLQQSGPGLLKPSETLSLTCVISGDSVSSNSATWNWIRQSPSRGLEWLGRTYFRSKWYNDYAVSVKSRITINPDTSKNQFSLQLNSATPEDTAVYYCARQMDEGVGFDFWGQGTLVTVSS
VL: EIVLTQSPATLSLSPGERATLSCRASQSVSSYLAWYQQKPGQAPRLLIYDASNRATGIPARFSGSGSGTDFTLTISSLEPEDFAVYYCQQRSNWPPTFGQGTRLEIK
In the case of B1, the response in assay [1] was half-maximal at 6.3 nM (EC50).

B2: ATA1.458.3 (scFv, V domains shown)
VH: B1 VH with S31T, S33D, A34V, S57R, V65R
VL: B1 VL with S92H
For B2, the binding result in assay [2] is “binds”.

B3: ATA1.458.5 (scFv, V domains shown)
VH: B1 VH with S33F, A34V, S57R
VL: B1 VL with S92H, N93S
Take B3: the binding result in assay [2] was “binds”.

B4: ATA1.459.3 (scFv, V domains shown)
VH: B1 VH with A34V, S57R, K58R, E105K
VL: B1 VL with S92H
For the molecule B4, the binding result with human 0N3R tau fibrils is reported as “binds”.

B5: H2.3 (antibody, V domains shown)
VH: QVQLQQSGPGLVKPSQTLSLTCAISGDSVSSHSASWNWIRQSPSRGLEWLGRTYYRGKWKTDYAVSVKSRIIINPDTSKNQFSLQLDSVTPEDTAVYFCTRATRGASDYWGQGTLVTVSS
VL: not shown
Regarding B5, in assay [3], the binding result is listed as “binds”.

B6: H2.4 (antibody, V domains shown)
VH: B5 VH with G57S, K60H, T61N, V65A, S69G
VL: not shown
With B6, the binding result in assay [3] is listed as “binds”.

One may read the EC50 as the concentration giving half of the maximal effect. A high value points to weaker potency.
